# Test system: Escherichia coli TOP10
# Assay: shrunken log2 fold change of peptide-encoding DNA abundance (4.5 h post-induction vs induction); higher = less antimicrobial activity (less host growth inhibition)
# Details: time post-induction: 4.5 h; library: site-saturation at positions 5, 18, 19, 20
# 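Also: peptides expressed intracellularly from a pBAD plasmid library in pooled LB shake-flask culture, induced with 0.3% L-arabinose, DNA abundance read by NGS, three biological replicates, DESeq2 with apeglm shrinkage.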
row,Sequence,shrunken log2 fold change
1,RRIRCRPPRLPRPRPRPQVSPRP,-0.0343
2,RRIRMRPPRLPRPRPRPMILPRP,-0.0491
3,RRIRTRPPRLPRPRPRPKGGPRP,0.279
4,RRIRARPPRLPRPRPRPLTCPRP,-0.248
5,RRIRLRPPRLPRPRPRPNWIPRP,-0.583
6,RRIRWRPPRLPRPRPRPFMEPRP,-0.239
7,RRIRKRPPRLPRPRPRPNAIPRP,0.0998
8,RRIRIRPPRLPRPRPRPIGNPRP,-0.104
9,RRIRNRPPRLPRPRPRPYRIPRP,-0.115
10,RRIRTRPPRLPRPRPRPPNIPRP,-0.355
11,RRIRIRPPRLPRPRPRPMKYPRP,-0.104
12,RRIRARPPRLPRPRPRPFPSPRP,0.131
13,RRIRGRPPRLPRPRPRPLKYPRP,0.145
14,RRIRYRPPRLPRPRPRPQPMPRP,-0.159
15,RRIRQRPPRLPRPRPRPSPQPRP,0.548
16,RRIRYRPPRLPRPRPRPSVYPRP,-0.888
17,RRIRARPPRLPRPRPRPAQGPRP,0.373
18,RRIRLRPPRLPRPRPRPRIKPRP,-0.168
19,RRIRCRPPRLPRPRPRPLLTPRP,0.00188
20,RRIRMRPPRLPRPRPRPKPGPRP,1.31
21,RRIRGRPPRLPRPRPRPMSHPRP,0.225
22,RRIRGRPPRLPRPRPRPNFMPRP,0.0686

row,Sequence,shrunken log2 fold change
1,RRIRLRPPRLPRPRPRPWVWPRP,-0.199
2,RRIRERPPRLPRPRPRPYVSPRP,-0.672
3,RRIRMRPPRLPRPRPRPMVWPRP,1.09
4,RRIRKRPPRLPRPRPRPGRAPRP,0.786
5,RRIRSRPPRLPRPRPRPEGGPRP,0.325
6,RRIRKRPPRLPRPRPRPTSWPRP,0.6
7,RRIRQRPPRLPRPRPRPQKQPRP,0.057
8,RRIRFRPPRLPRPRPRPCTPPRP,-0.158
9,RRIRGRPPRLPRPRPRPTEKPRP,0.455
10,RRIRKRPPRLPRPRPRPYQNPRP,-0.198
11,RRIRYRPPRLPRPRPRPSRMPRP,-0.303
12,RRIRRRPPRLPRPRPRPWFFPRP,0.08
13,RRIRERPPRLPRPRPRPWPFPRP,-0.0819
14,RRIRGRPPRLPRPRPRPCGWPRP,1.34
15,RRIRFRPPRLPRPRPRPSRPPRP,0.616
16,RRIRSRPPRLPRPRPRPISAPRP,-0.256
17,RRIRIRPPRLPRPRPRPIFHPRP,-0.411
18,RRIRWRPPRLPRPRPRPEQCPRP,-0.0195
19,RRIRARPPRLPRPRPRPNEFPRP,-0.362
20,RRIRHRPPRLPRPRPRPFLPPRP,-0.671
21,RRIRWRPPRLPRPRPRPFGPPRP,0.0591
22,RRIRYRPPRLPRPRPRPPIKPRP,-0.518

row,Sequence,shrunken log2 fold change
1,RRIRVRPPRLPRPRPRPQHQPRP,-0.571
2,RRIRMRPPRLPRPRPRPKHPPRP,0.612
3,RRIRTRPPRLPRPRPRPNLNPRP,-0.55
4,RRIRHRPPRLPRPRPRPKMQPRP,-0.121
5,RRIRTRPPRLPRPRPRPRYQPRP,-0.0799
6,RRIRCRPPRLPRPRPRPIEEPRP,0.008
7,RRIRWRPPRLPRPRPRPSYGPRP,-0.503
8,RRIRDRPPRLPRPRPRPQEDPRP,0.399
9,RRIRYRPPRLPRPRPRPLQAPRP,-0.057
10,RRIRARPPRLPRPRPRPRGHPRP,0.644
11,RRIRLRPPRLPRPRPRPGVEPRP,0.0194
12,RRIRWRPPRLPRPRPRPFCTPRP,-0.137
13,RRIRERPPRLPRPRPRPILDPRP,-0.209
14,RRIRQRPPRLPRPRPRPVVYPRP,0.12
15,RRIRKRPPRLPRPRPRPTVVPRP,1
16,RRIRVRPPRLPRPRPRPGGTPRP,0.0237
17,RRIRTRPPRLPRPRPRPNWSPRP,0.0464
18,RRIRFRPPRLPRPRPRPSPTPRP,0.313
19,RRIRARPPRLPRPRPRPGVMPRP,0.437
20,RRIRMRPPRLPRPRPRPRHLPRP,-0.0764
21,RRIRWRPPRLPRPRPRPACIPRP,0.0736
22,RRIRPRPPRLPRPRPRPHEDPRP,-0.0757

row,Sequence,shrunken log2 fold change
1,RRIRYRPPRLPRPRPRPTMRPRP,0.243
2,RRIRQRPPRLPRPRPRPYCNPRP,-1.38
3,RRIRWRPPRLPRPRPRPEFNPRP,0.609
4,RRIRCRPPRLPRPRPRPILIPRP,1.28
5,RRIRLRPPRLPRPRPRPNHKPRP,-0.335
6,RRIRSRPPRLPRPRPRPGSGPRP,0.32
7,RRIRRRPPRLPRPRPRPKVMPRP,0.16
8,RRIRMRPPRLPRPRPRPVYIPRP,-0.0842
9,RRIRVRPPRLPRPRPRPWQSPRP,0.0169
10,RRIRERPPRLPRPRPRPAGIPRP,-0.536
11,RRIRMRPPRLPRPRPRPHVVPRP,-0.0448
12,RRIRCRPPRLPRPRPRPDIEPRP,-0.0833
13,RRIRGRPPRLPRPRPRPDMQPRP,0.37
14,RRIRERPPRLPRPRPRPITAPRP,-0.573
15,RRIRCRPPRLPRPRPRPKECPRP,0.103
16,RRIRARPPRLPRPRPRPCMPPRP,-0.0783
17,RRIRIRPPRLPRPRPRPNCHPRP,-0.232
18,RRIRQRPPRLPRPRPRPVIGPRP,-0.0941
19,RRIRVRPPRLPRPRPRPPHCPRP,0.178
20,RRIRIRPPRLPRPRPRPKENPRP,-0.505
21,RRIRRRPPRLPRPRPRPCIPPRP,-0.867
22,RRIRWRPPRLPRPRPRPHAQPRP,0.0298

row,Sequence,shrunken log2 fold change
1,RRIRFRPPRLPRPRPRPGMDPRP,-0.25
2,RRIRPRPPRLPRPRPRPKKFPRP,0.0281
3,RRIRWRPPRLPRPRPRPGDKPRP,-0.00136
4,RRIRIRPPRLPRPRPRPYIRPRP,-0.159
5,RRIRLRPPRLPRPRPRPCFKPRP,-0.315
6,RRIRERPPRLPRPRPRPESMPRP,-0.46
7,RRIRVRPPRLPRPRPRPYNSPRP,-0.0974
8,RRIRERPPRLPRPRPRPEVHPRP,0.116
9,RRIRERPPRLPRPRPRPEAIPRP,-0.0664
10,RRIRMRPPRLPRPRPRPPPKPRP,2.03
11,RRIRWRPPRLPRPRPRPFSRPRP,-0.0399
12,RRIRSRPPRLPRPRPRPEEFPRP,-0.00122
13,RRIRIRPPRLPRPRPRPPYDPRP,-0.814
14,RRIRGRPPRLPRPRPRPPCQPRP,0.283
15,RRIRDRPPRLPRPRPRPYWSPRP,-0.503
16,RRIRYRPPRLPRPRPRPGNRPRP,0.0823
17,RRIRCRPPRLPRPRPRPGFRPRP,0.498
18,RRIRWRPPRLPRPRPRPYKCPRP,0.0561
19,RRIRMRPPRLPRPRPRPLWNPRP,-0.182
20,RRIRFRPPRLPRPRPRPCIVPRP,-0.637
21,RRIRVRPPRLPRPRPRPHELPRP,0.118

# Reference: the supplement of paper PMC9112550, “Optimization of the antimicrobial peptide Bac7 by deep mutational scanning” (BMC Biology, 2022)
